From PMC12416549 (2024) come the findings set out here.

Sequences and labels used below:
B1: L24M (designed binder)
chain: MTLQELLREEALRRAEAEAFRYAMELLAEKFPEQKEYLLDLAEEIESQIRSLSGVDVEDVRKFLDKEWAWVKELLAEHPAELAEVEAARAARLAELRAEVEAKVAA
B2: L82S (designed binder)
chain: MTLQELLREEALRRAEAEAFRYALELLAEKFPEQKEYLLDLAEEIESQIRSLSGVDVEDVRKFLDKEWAWVKELLAEHPAESAEVEAARAARLAELRAEVEAKVAA
B3: F63P (designed binder)
chain: MTLQELLREEALRRAEAEAFRYALELLAEKFPEQKEYLLDLAEEIESQIRSLSGVDVEDVRKPLDKEWAWVKELLAEHPAELAEVEAARAARLAELRAEVEAKVAA
B4: A42Y (designed binder)
chain: MTLQELLREEALRRAEAEAFRYALELLAEKFPEQKEYLLDLYEEIESQIRSLSGVDVEDVRKFLDKEWAWVKELLAEHPAELAEVEAARAARLAELRAEVEAKVAA
B5: L27Q (designed binder)
chain: MTLQELLREEALRRAEAEAFRYALELQAEKFPEQKEYLLDLAEEIESQIRSLSGVDVEDVRKFLDKEWAWVKELLAEHPAELAEVEAARAARLAELRAEVEAKVAA
B6: F20H (designed binder)
chain: MTLQELLREEALRRAEAEAHRYALELLAEKFPEQKEYLLDLAEEIESQIRSLSGVDVEDVRKFLDKEWAWVKELLAEHPAELAEVEAARAARLAELRAEVEAKVAA
B7: E99N (designed binder)
chain: MTLQELLREEALRRAEAEAFRYALELLAEKFPEQKEYLLDLAEEIESQIRSLSGVDVEDVRKFLDKEWAWVKELLAEHPAELAEVEAARAARLAELRANVEAKVAA
B8: R50V (designed binder)
chain: MTLQELLREEALRRAEAEAFRYALELLAEKFPEQKEYLLDLAEEIESQIVSLSGVDVEDVRKFLDKEWAWVKELLAEHPAELAEVEAARAARLAELRAEVEAKVAA
B9: E5Q (designed binder)
chain: MTLQQLLREEALRRAEAEAFRYALELLAEKFPEQKEYLLDLAEEIESQIRSLSGVDVEDVRKFLDKEWAWVKELLAEHPAELAEVEAARAARLAELRAEVEAKVAA
B10: T2G (designed binder)
chain: MGLQELLREEALRRAEAEAFRYALELLAEKFPEQKEYLLDLAEEIESQIRSLSGVDVEDVRKFLDKEWAWVKELLAEHPAELAEVEAARAARLAELRAEVEAKVAA
B11: K30A (designed binder)
chain: MTLQELLREEALRRAEAEAFRYALELLAEAFPEQKEYLLDLAEEIESQIRSLSGVDVEDVRKFLDKEWAWVKELLAEHPAELAEVEAARAARLAELRAEVEAKVAA
B12: A88K (designed binder)
chain: MTLQELLREEALRRAEAEAFRYALELLAEKFPEQKEYLLDLAEEIESQIRSLSGVDVEDVRKFLDKEWAWVKELLAEHPAELAEVEAKRAARLAELRAEVEAKVAA
B13: E84N (designed binder)
chain: MTLQELLREEALRRAEAEAFRYALELLAEKFPEQKEYLLDLAEEIESQIRSLSGVDVEDVRKFLDKEWAWVKELLAEHPAELANVEAARAARLAELRAEVEAKVAA
B14: E58Y (designed binder)
chain: MTLQELLREEALRRAEAEAFRYALELLAEKFPEQKEYLLDLAEEIESQIRSLSGVDVYDVRKFLDKEWAWVKELLAEHPAELAEVEAARAARLAELRAEVEAKVAA
B15: L74I (designed binder)
chain: MTLQELLREEALRRAEAEAFRYALELLAEKFPEQKEYLLDLAEEIESQIRSLSGVDVEDVRKFLDKEWAWVKEILAEHPAELAEVEAARAARLAELRAEVEAKVAA
B16: E44T (designed binder)
chain: MTLQELLREEALRRAEAEAFRYALELLAEKFPEQKEYLLDLAETIESQIRSLSGVDVEDVRKFLDKEWAWVKELLAEHPAELAEVEAARAARLAELRAEVEAKVAA
B17: L41C (designed binder)
chain: MTLQELLREEALRRAEAEAFRYALELLAEKFPEQKEYLLDCAEEIESQIRSLSGVDVEDVRKFLDKEWAWVKELLAEHPAELAEVEAARAARLAELRAEVEAKVAA
B18: L7D (designed binder)
chain: MTLQELDREEALRRAEAEAFRYALELLAEKFPEQKEYLLDLAEEIESQIRSLSGVDVEDVRKFLDKEWAWVKELLAEHPAELAEVEAARAARLAELRAEVEAKVAA
B19: I49A (designed binder)
chain: MTLQELLREEALRRAEAEAFRYALELLAEKFPEQKEYLLDLAEEIESQARSLSGVDVEDVRKFLDKEWAWVKELLAEHPAELAEVEAARAARLAELRAEVEAKVAA
B20: L38A (designed binder)
chain: MTLQELLREEALRRAEAEAFRYALELLAEKFPEQKEYALDLAEEIESQIRSLSGVDVEDVRKFLDKEWAWVKELLAEHPAELAEVEAARAARLAELRAEVEAKVAA
B21: K35Y (designed binder)
chain: MTLQELLREEALRRAEAEAFRYALELLAEKFPEQYEYLLDLAEEIESQIRSLSGVDVEDVRKFLDKEWAWVKELLAEHPAELAEVEAARAARLAELRAEVEAKVAA
B22: E5Y (designed binder)
chain: MTLQYLLREEALRRAEAEAFRYALELLAEKFPEQKEYLLDLAEEIESQIRSLSGVDVEDVRKFLDKEWAWVKELLAEHPAELAEVEAARAARLAELRAEVEAKVAA
B23: A69M (designed binder)
chain: MTLQELLREEALRRAEAEAFRYALELLAEKFPEQKEYLLDLAEEIESQIRSLSGVDVEDVRKFLDKEWMWVKELLAEHPAELAEVEAARAARLAELRAEVEAKVAA
B24: L7F (designed binder)
chain: MTLQELFREEALRRAEAEAFRYALELLAEKFPEQKEYLLDLAEEIESQIRSLSGVDVEDVRKFLDKEWAWVKELLAEHPAELAEVEAARAARLAELRAEVEAKVAA
B25: I45D (designed binder)
chain: MTLQELLREEALRRAEAEAFRYALELLAEKFPEQKEYLLDLAEEDESQIRSLSGVDVEDVRKFLDKEWAWVKELLAEHPAELAEVEAARAARLAELRAEVEAKVAA
B26: K103N (designed binder)
chain: MTLQELLREEALRRAEAEAFRYALELLAEKFPEQKEYLLDLAEEIESQIRSLSGVDVEDVRKFLDKEWAWVKELLAEHPAELAEVEAARAARLAELRAEVEANVAA
B27: L12S (designed binder)
chain: MTLQELLREEASRRAEAEAFRYALELLAEKFPEQKEYLLDLAEEIESQIRSLSGVDVEDVRKFLDKEWAWVKELLAEHPAELAEVEAARAARLAELRAEVEAKVAA
B28: F63G (designed binder)
chain: MTLQELLREEALRRAEAEAFRYALELLAEKFPEQKEYLLDLAEEIESQIRSLSGVDVEDVRKGLDKEWAWVKELLAEHPAELAEVEAARAARLAELRAEVEAKVAA
B29: E81T (designed binder)
chain: MTLQELLREEALRRAEAEAFRYALELLAEKFPEQKEYLLDLAEEIESQIRSLSGVDVEDVRKFLDKEWAWVKELLAEHPATLAEVEAARAARLAELRAEVEAKVAA
B30: E36Y (designed binder)
chain: MTLQELLREEALRRAEAEAFRYALELLAEKFPEQKYYLLDLAEEIESQIRSLSGVDVEDVRKFLDKEWAWVKELLAEHPAELAEVEAARAARLAELRAEVEAKVAA
B31: I49C (designed binder)
chain: MTLQELLREEALRRAEAEAFRYALELLAEKFPEQKEYLLDLAEEIESQCRSLSGVDVEDVRKFLDKEWAWVKELLAEHPAELAEVEAARAARLAELRAEVEAKVAA
B32: L52E (designed binder)
chain: MTLQELLREEALRRAEAEAFRYALELLAEKFPEQKEYLLDLAEEIESQIRSESGVDVEDVRKFLDKEWAWVKELLAEHPAELAEVEAARAARLAELRAEVEAKVAA
B33: A15W (designed binder)
chain: MTLQELLREEALRRWEAEAFRYALELLAEKFPEQKEYLLDLAEEIESQIRSLSGVDVEDVRKFLDKEWAWVKELLAEHPAELAEVEAARAARLAELRAEVEAKVAA
B34: L96M (designed binder)
chain: MTLQELLREEALRRAEAEAFRYALELLAEKFPEQKEYLLDLAEEIESQIRSLSGVDVEDVRKFLDKEWAWVKELLAEHPAELAEVEAARAARLAEMRAEVEAKVAA

This experiment has as its target T1, TNFR1 (Homo sapiens, UniProt P19438).
T1 chain: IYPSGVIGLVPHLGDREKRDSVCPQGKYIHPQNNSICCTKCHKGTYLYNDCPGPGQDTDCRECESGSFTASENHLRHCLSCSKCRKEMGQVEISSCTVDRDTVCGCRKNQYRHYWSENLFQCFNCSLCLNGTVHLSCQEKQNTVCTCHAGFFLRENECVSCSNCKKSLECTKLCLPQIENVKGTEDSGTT
The experiment is described as follows: yeast display SC50.
In the case of B1, the “apparent Kd (screen)” value is 0.718 nM.

In the case of B2, the “apparent Kd (screen)” value came to 1.54 nM.

In the case of B3, the “apparent Kd (screen)” value turned out to be 2.48 nM.

For the molecule B4, the “apparent Kd (screen)” value is 11.4 nM.

In the case of B5, the “apparent Kd (screen)” value turned out to be 0.446 nM.

Consider B6, for which the “apparent Kd (screen)” value was 0.49 nM.

B7: the “apparent Kd (screen)” value was 0.718 nM.

On to B8, for which the “apparent Kd (screen)” value turned out to be 1.4 nM.

Turning to B9, the “apparent Kd (screen)” value was found to be 0.49 nM.

For the molecule B10, the “apparent Kd (screen)” value amounted to 1.16 nM.

Take B11: the “apparent Kd (screen)” value was 1.05 nM.

Regarding B12, the “apparent Kd (screen)” value stood at 0.539 nM.

As for B13, the “apparent Kd (screen)” value was 0.869 nM.

Consider B14, for which the “apparent Kd (screen)” value amounted to 0.539 nM.

For the molecule B15, the “apparent Kd (screen)” value was 2.73 nM.

For the molecule B16, the “apparent Kd (screen)” value was determined as 9.41 nM.

Take B17: the “apparent Kd (screen)” value is 2.48 nM.

Turning to B18, the “apparent Kd (screen)” value amounted to 0.79 nM.

As to B19, the “apparent Kd (screen)” value is 2.73 nM.

Regarding B20, the “apparent Kd (screen)” value amounted to 12.5 nM.

As for B21, the “apparent Kd (screen)” value turned out to be 0.446 nM.

Consider B22, for which the “apparent Kd (screen)” value was determined as 0.718 nM.

On to B23, for which the “apparent Kd (screen)” value turned out to be 0.79 nM.

On to B24, for which the “apparent Kd (screen)” value was found to be 7.07 nM.

For B25, the “apparent Kd (screen)” value turned out to be 1.54 nM.

Turning to B26, the “apparent Kd (screen)” value stood at 0.49 nM.

Take B27: the “apparent Kd (screen)” value amounted to 1.16 nM.

With B28, the “apparent Kd (screen)” value amounted to 0.869 nM.

Regarding B29, the “apparent Kd (screen)” value was found to be 0.539 nM.

Regarding B30, the “apparent Kd (screen)” value is 0.539 nM.

For B31, the “apparent Kd (screen)” value was 2.48 nM.

In the case of B32, the “apparent Kd (screen)” value is 24.4 nM.

Turning to B33, the “apparent Kd (screen)” value came to 0.593 nM.

B34: the “apparent Kd (screen)” value was determined as 0.718 nM.
